Data: publication PMC4951027 (2016)
Ends that are not written are not given here.

biological target: Fn N-terminal domain fragment (Fn-NTD) (human); assay: ITC
Sequence (chain, as listed by the source): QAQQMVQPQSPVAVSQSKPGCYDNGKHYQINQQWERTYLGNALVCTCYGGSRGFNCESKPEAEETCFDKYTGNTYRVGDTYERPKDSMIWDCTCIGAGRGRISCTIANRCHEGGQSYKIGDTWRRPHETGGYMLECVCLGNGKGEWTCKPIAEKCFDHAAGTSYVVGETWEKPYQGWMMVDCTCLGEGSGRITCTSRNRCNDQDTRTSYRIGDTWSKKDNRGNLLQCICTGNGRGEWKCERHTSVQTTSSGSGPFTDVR

Binder	Kd [nM]
KYEHGGNIIDIDFDSVPHIHGFNKHTEIIEEDTNKDKP (domain or fragment, also: fused to GST carrier (carrier not in chain)) [GST-FnBPA-10]	20
SYQFGGHNSVDFEEDTLPKVSGQNEGQQTIEEDTTPP (domain or fragment, also: fused to GST carrier (carrier not in chain)) [GST-FnBPA-11]	< 1
GGGQVTTESNLVEFDEESTKGIVTGAVSDHTTVEDTK (domain or fragment, also: fused to GST carrier (carrier not in chain)) [GST-FnBPA-5]	44
NEKNGPIIQNNKFEYKEDTIKETLTGQYDKNLVTTVEEEYDS (domain or fragment, also: fused to GST carrier (carrier not in chain)) [GST-FnBPA-1]	4.8
KYEQGGNIVDIDFDSVPQIHGQNKGNQSFEEDTEKDKP (domain or fragment, also: fused to GST carrier (carrier not in chain)) [GST-FnBPA-9]	7.3
